Laboratory results as given in patent US20230416371A1 (Chugai, published 2023).

Columns and labels:
[1] = molecular target: T1, human FcγRIIIa V (allotype V158) extracellular domain (human, UniProt P08637 17-208); experiment: SPR Biacore 8K+; KD of G1d divided by KD of this antibody
T1 construct: extracellular domain; also called hFcγRIIIaV
Method: (§1) The extracellular domains of FcγRs were produced by the method described in WO2014104165. The interaction between the produced antibodies and human FcγRs was analyzed using Biacore 8K+by the method below. For the running buffer, 50 mM Na-Phosphate, 150 mM NaCl, and 0.05% Tween20 (pH 7.4) was used, and measurement was performed at 25° C. The sensor chip used was a Series S SA chip (GE Healthcare) onto which CaptureSelect Human Fab-kappa Kinetics Biotin Conjugate (Thermo Fisher Scientific) was immobilized. An antibody of interest was captured onto this chip, and each FcγR diluted with the running buffer was allowed to interact with it. The chip was regenerated using 10 mM Glycine-HCl (pH 1.5), and repeatedly used to capture antibodies and perform measurement. The dissociation constants KD (mol/L) of each antibody for FcγRs were calculated using Biacore Insight Evaluation Software, with a steady state affinity model for the dissociation constant for FcγRIIb and a 1:1 Langmuir binding model for the dissociation constants for the other FcγRs (Table 2).

[2] = molecular target: T2, human FcγRIIIa F (allotype F158) extracellular domain (human, UniProt P08637 17-208); experiment: SPR Biacore 8K+; KD for FcγRIIb divided by KD for this FcγR
T2 construct: extracellular domain; also called hFcγRIIIaF
Method: as §1

T1 sequence (P08637 17-208 F176V): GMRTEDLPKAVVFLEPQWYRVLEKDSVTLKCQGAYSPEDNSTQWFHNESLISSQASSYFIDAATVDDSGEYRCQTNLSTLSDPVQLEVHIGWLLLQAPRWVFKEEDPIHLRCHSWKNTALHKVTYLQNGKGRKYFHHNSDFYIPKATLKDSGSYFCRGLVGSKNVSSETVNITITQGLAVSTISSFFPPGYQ
T2 sequence (P08637 17-208): as the sequence (P08637 17-208 F176V) above, with V160F counted along it

| Relative value to KD between G1d and hFcγRs [1] [times] | A/I ratio (KD for FcγRIIb divided by KD for each FcγR) [2] | Binder |
| --- | --- | --- |
| 323 |  | EGL-ART1 (H240-Kn125/L73-k0//H240-H1076/L73-k0) (antibody, human IgG1, kappa, Anti-human Epiregulin IgG1 with heterodimeric (knobs-into-holes) Fc variant; also called Kn125/H1076) heavy 1: QDQLVQSGAEVKKPGASVKVSCKASGFNIKDTYIQWVRQAPGQGLEWMGRIDPLRKQTKYREKFEGRVTITADTSTNTAYMELSSLRSEDTAVYYCVRSGREFDYWGQGTLVTVSSASTKGPSVFPLAPSSKSTSGGTAALGCLVKDYFPEPVTVSWNSGALTSGVHTFPAVLQSSGLYSLSSVVTVPSSSLGTQTYICNVNHKPSNTKVDKKVEPKSCDKTHTCPPCPAPEYQWGPMVFLFPPKPKDTLMISRTPEVTCVVVDVSDEEPEVKFNWYVDGVEVHNAKTKPREEQYNATYRVVSVLTVLHQDWLNGKEYKCKVSNKALPAPIEKTISKAKGQPREPQVCTLPPSRDELTKNQVSLWCLVKGFYPSDIAVEWESNGQPENNYKTTPPVLDSDGSFFLYSKLTVDKSRWQQGNVFSCSVMHEALHNHYTQKSLSLSP heavy 2: QDQLVQSGAEVKKPGASVKVSCKASGFNIKDTYIQWVRQAPGQGLEWMGRIDPLRKQTKYREKFEGRVTITADTSTNTAYMELSSLRSEDTAVYYCVRSGREFDYWGQGTLVTVSSASTKGPSVFPLAPSSKSTSGGTAALGCLVKDYFPEPVTVSWNSGALTSGVHTFPAVLQSSGLYSLSSVVTVPSSSLGTQTYICNVNHKPSNTKVDKKVEPKSCDKTHTCPPCPAPELLGGPSVFLFPPKPKDTLMISRTPEVTCVVVDVSHEEPEVKFNWYVDGVEVHNAKTKPREEQYNSTYRVVSVLTVLHQDWLNGKEYKCKVSNDALPMPIEETISKAKGQPREPQVYTLPPSRCELTKNQVSLSCAVKGFYPSDIAVEWESNGQPENNYKTTPPVLDSDGSFFLVSKLTVDKSRWQQGNVFSCSVMHEALHNHYTQKSLSLSP light: DIQMTQSPSSLSASVGDRVTITCRASQDIHKYIAWYQQKPGQAPRLLIQYTSTLQPGVPSRFSGSGSGTDYTFTISSLQPEDIATYYCLQYEQLRTFGGGTKVEIKRTVAAPSVFIFPPSDEQLKSGTASVVCLLNNFYPREAKVQWKVDNALQSGNSQESVTEQDSKDSTYSLSSTLTLSKADYEKHKVYACEVTHQGLSSPVTKSFNRGEC |
|  | 58.4 | EGL-ART2 (H240-Kn120/L73-k0//H240-H1068/L73-k0) (antibody, human IgG1, kappa, Anti-human Epiregulin IgG1 with heterodimeric (knobs-into-holes) Fc variant; also called Kn120/H1068) heavy 1: QDQLVQSGAEVKKPGASVKVSCKASGFNIKDTYIQWVRQAPGQGLEWMGRIDPLRKQTKYREKFEGRVTITADTSTNTAYMELSSLRSEDTAVYYCVRSGREFDYWGQGTLVTVSSASTKGPSVFPLAPSSKSTSGGTAALGCLVKDYFPEPVTVSWNSGALTSGVHTFPAVLQSSGLYSLSSVVTVPSSSLGTQTYICNVNHKPSNTKVDKKVEPKSCDKTHTCPPCPAPEYYWGPMVFLFPPKPKDTLMISRTPEVTCVVVDVSDEDPEVKFNWYVDGVEVHNAKTKPREEQYNATYRVVSVLTVLHQDWLNGKEYKCKVSNKDLPAPIEKTISKAKGQPREPQVCTLPPSRDELTKNQVSLWCLVKGFYPSDIAVEWESNGQPENNYKTTPPVLDSDGSFFLYSKLTVDKSRWQQGNVFSCSVMHEALHNHYTQKSLSLSP heavy 2: QDQLVQSGAEVKKPGASVKVSCKASGFNIKDTYIQWVRQAPGQGLEWMGRIDPLRKQTKYREKFEGRVTITADTSTNTAYMELSSLRSEDTAVYYCVRSGREFDYWGQGTLVTVSSASTKGPSVFPLAPSSKSTSGGTAALGCLVKDYFPEPVTVSWNSGALTSGVHTFPAVLQSSGLYSLSSVVTVPSSSLGTQTYICNVNHKPSNTKVDKKVEPKSCDKTHTCPPCPAPELLGGPSVFLFPPKPKDTLMISRTPEVTCVVVDVSHEEPEVKFNWYVDGVEVHNAKTKPREEQYNSTYRVVSVLTVLHQDWLNGKEYKCKVSNDALPKPIEETISKAKGQPREPQVYTLPPSRCELTKNQVSLSCAVKGFYPSDIAVEWESNGQPENNYKTTPPVLDSDGSFFLVSKLTVDKSRWQQGNVFSCSVMHEALHNHYTQKSLSLSP light: DIQMTQSPSSLSASVGDRVTITCRASQDIHKYIAWYQQKPGQAPRLLIQYTSTLQPGVPSRFSGSGSGTDYTFTISSLQPEDIATYYCLQYEQLRTFGGGTKVEIKRTVAAPSVFIFPPSDEQLKSGTASVVCLLNNFYPREAKVQWKVDNALQSGNSQESVTEQDSKDSTYSLSSTLTLSKADYEKHKVYACEVTHQGLSSPVTKSFNRGEC |
|  | 387 | EGL-ART5 (H240-Kn462/L73-k0//H240-HI441/L73-k0) (antibody, human IgG1, kappa, Anti-human Epiregulin IgG1 with heterodimeric (knobs-into-holes) Fc variant) heavy 1: QDQLVQSGAEVKKPGASVKVSCKASGFNIKDTYIQWVRQAPGQGLEWMGRIDPLRKQTKYREKFEGRVTITADTSTNTAYMELSSLRSEDTAVYYCVRSGREFDYWGQGTLVTVSSASTKGPSVFPLAPSSKSTSGGTAALGCLVKDYFPEPVTVSWNSGALTSGVHTFPAVLQSSGLYSLSSVVTVPSSSLGTQTYICNVNHKPSNTKVDKKVEPKSCDKTHTCPPCPAPEFQWGPMVFLFPPKPKDVLMISRTPEVTCVVVDVSDEEPEVKFNWYVDGVEVHNAKTKPREEQYNATYRVVSVLPVLHQDWLNGKEYKCKVSNDALPAPIEKTISKAKGQPREPQVCTLPPSRDELTKNQVSLWCLVKGFYPSDIAVEWESNGQPENNYKTTPPVLDSDGSFFLYSKLTVDKSRWQQGNVFSCSVMHEALHNHYTQKSLSLSP heavy 2: QDQLVQSGAEVKKPGASVKVSCKASGFNIKDTYIQWVRQAPGQGLEWMGRIDPLRKQTKYREKFEGRVTITADTSTNTAYMELSSLRSEDTAVYYCVRSGREFDYWGQGTLVTVSSASTKGPSVFPLAPSSKSTSGGTAALGCLVKDYFPEPVTVSWNSGALTSGVHTFPAVLQSSGLYSLSSVVTVPSSSLGTQTYICNVNHKPSNTKVDKKVEPKSCDKTHTCPPCPAPELLAGPSVFLFPPKPKDVLMISRTPEVTCVVVDVSHEEPEVKFNWYVDGVEVHNAKTKPREEQYNATYRVVSVLPVLHQDWLNGKEYKCKVSNDALPAPIEETISKAKGQPREPQVYTLPPSRCELTKNQVSLSCAVKGFYPSDIAVEWESNGQPENNYKTTPPVLDSDGSFFLVSKLTVDKSRWQQGNVFSCSVMHEALHNHYTQKSLSLSP light: DIQMTQSPSSLSASVGDRVTITCRASQDIHKYIAWYQQKPGQAPRLLIQYTSTLQPGVPSRFSGSGSGTDYTFTISSLQPEDIATYYCLQYEQLRTFGGGTKVEIKRTVAAPSVFIFPPSDEQLKSGTASVVCLLNNFYPREAKVQWKVDNALQSGNSQESVTEQDSKDSTYSLSSTLTLSKADYEKHKVYACEVTHQGLSSPVTKSFNRGEC |
| 685 |  | EGL-ART8 (H240-Kn461/L73-k0//H240-HI443/L73-k0) (antibody, human IgG1, kappa, Anti-human Epiregulin IgG1 with heterodimeric (knobs-into-holes) Fc variant) heavy 1: QDQLVQSGAEVKKPGASVKVSCKASGFNIKDTYIQWVRQAPGQGLEWMGRIDPLRKQTKYREKFEGRVTITADTSTNTAYMELSSLRSEDTAVYYCVRSGREFDYWGQGTLVTVSSASTKGPSVFPLAPSSKSTSGGTAALGCLVKDYFPEPVTVSWNSGALTSGVHTFPAVLQSSGLYSLSSVVTVPSSSLGTQTYICNVNHKPSNTKVDKKVEPKSCDKTHTCPPCPAPEFQWGPMVFLFPPKPKDVLMISRTPEVTCVVVDVSDEEPEVKFNWYVDGVEVHNAKTKPREEQYNATYRVVSVLPVLHQDWLNGKEYKCKVSNDALPAPEEKTISKAKGQPREPQVCTLPPSRDELTKNQVSLWCLVKGFYPSDIAVEWESNGQPENNYKTTPPVLDSDGSFFLYSKLTVDKSRWQQGNVFSCSVMHEALHNHYTQKSLSLSP heavy 2: QDQLVQSGAEVKKPGASVKVSCKASGFNIKDTYIQWVRQAPGQGLEWMGRIDPLRKQTKYREKFEGRVTITADTSTNTAYMELSSLRSEDTAVYYCVRSGREFDYWGQGTLVTVSSASTKGPSVFPLAPSSKSTSGGTAALGCLVKDYFPEPVTVSWNSGALTSGVHTFPAVLQSSGLYSLSSVVTVPSSSLGTQTYICNVNHKPSNTKVDKKVEPKSCDKTHTCPPCPAPELLAGPSVFLFPPKPKDVLMISRTPEVTCVVVDVSHEEPEVKFNWYVDGVEVHNAKTKPREEQYNATYRVVSVLPVLHQDWLNGKEYKCKVSNDALPAPEEETISKAKGQPREPQVYTLPPSRCELTKNQVSLSCAVKGFYPSDIAVEWESNGQPENNYKTTPPVLDSDGSFFLVSKLTVDKSRWQQGNVFSCSVMHEALHNHYTQKSLSLSP light: DIQMTQSPSSLSASVGDRVTITCRASQDIHKYIAWYQQKPGQAPRLLIQYTSTLQPGVPSRFSGSGSGTDYTFTISSLQPEDIATYYCLQYEQLRTFGGGTKVEIKRTVAAPSVFIFPPSDEQLKSGTASVVCLLNNFYPREAKVQWKVDNALQSGNSQESVTEQDSKDSTYSLSSTLTLSKADYEKHKVYACEVTHQGLSSPVTKSFNRGEC |
